Data: patent US20030148389A1 (SERONO GENETICS INSTITUTE S A, published 2003)

Molecular target: T1, PAPAP protein (human)
T1 construct: Identified by expression cloning; COS-1 cells transfected with the cDNA clone were stained by the AP fusion probe; also called PAPAP polypeptide; PAPAP gene product
Test: in situ receptor binding assay: AP staining of COS-1 cells transfected with human brain cDNA pools, incubated with PAP-AP fusion medium
Description: Plasmid DNA was obtained from pools of ˜1000 colonies using the QiaPrep Spin Miniprep kit (Qiagen). These pools of DNA were then transiently transfected into COS-1 cells as follows. Two micrograms of DNA from each pool of human brain cDNAs was diluted into 200 ul of serum-free medium (DMEM medium from Gibco-BRL with no additives). The DNA was complexed to the PLUS reagent by adding 12 ul of (mixed prior to use) PLUS reagent to the DNA in serum-free medium. 200 ul of the DNA-PLUS-Lipofectamine reagent complexes was added to wells containing Cos-1 cells plated at 0.25×10⁵ cells per well in 6 well dishes (35 mm) the day prior to transfection (in complete medium containing no antibiotics). Previous to the addition of the DNA/lipofectamine/PLUS complex, the complete medium was removed from the cells and replaced with 800 ul serum-free medium. Cells were incubated at 37 degrees C. at 5% CO₂ for 3 hours; then the medium in each well was replaced with 2 ml of complete medium.
Two days after transfection, cell staining was begun. Culture medium was removed from cells in the 6 well dishes. […]

T1 sequence (chain, as listed by the source limits assumed): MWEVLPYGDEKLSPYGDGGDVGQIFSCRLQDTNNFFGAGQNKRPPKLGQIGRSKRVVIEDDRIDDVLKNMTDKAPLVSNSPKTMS

- binding result: binds
B1: g34872 peptide-alkaline phosphatase fusion protein (other)
chain: DAAQPARRARRTYEAYQPLERMWTCNYNQQKDQSCNHKEITSTKAERRSSGIIPVEEENPDFWNREAAEALGAAKKLQPAQTAAKNLIIFLGDGMGVSTVTAARILKGQKKDKLGPEIPLAMDRFPYVALSKTYNVDKHVPDSGATATAYLCGVKGNFQTIGLSAAARFNQCNTTRGNEVISVMNRAKKAGKSVGVVTTTRVQHASPAGTYAHTVNRNWYSDADVPASARQEGCQDIATQLISNMDIDVILGGGRKYMFPMGTPDPEYPDDYSQGGTRLDGKNLVQEWLAKRQGARYVWNRTELMQASLDPSVTHLMGLFEPGDMKYEIHRDSTLDPSLMEMTEAALRLLSRNPRGFFLFVEGGRIDHGHHESRAYRALTETIMFDDAIERAGQLTSEEDTLSLVTADHSHVFSFGGYPLRGSSIFGLAPGKARDRKAYTVLLYGNGPGYVLKDGARPDVTESESGSPEYRQQSAVPLDEETHAGEDVAVFARGPQAHLVHGVQEQTFIAHVMAFAACLEPYTACDLAPPAGTTDAAHPGYLEEALSLEGPEQKLISEEDLNSAVDHHHHHH
notes: Used as conditioned medium from stably transfected 293T cells; The vector has a secretion signal upstream of the insert; also called PAP-AP fusion protein; AP fusion protein
